According to publication PMC2749821:
One block for each binder: values may come before it.

Tests used:
[1] = biological target: T1, activin receptor type I (ActR-I) ectodomain, human (human), Q04771; assay: SPR; Biacore 2000; ligands as analyte over biotinylated receptor ectodomains (about 200 RU) on streptavidin-coated CM5 chips; HBS500 (10 mM HEPES pH 7.4, 500 mM NaCl, 3.4 mM EDTA, 0.005% P20), 25°C, 10 μl/min; apparent affinities, 1:2 interaction with avidity; details: remark: other sources report otherwise
T1 chain: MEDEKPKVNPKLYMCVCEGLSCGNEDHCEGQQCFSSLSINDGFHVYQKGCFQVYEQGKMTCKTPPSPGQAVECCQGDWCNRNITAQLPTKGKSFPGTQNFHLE

[2] = biological target: T2, bone morphogenetic protein 7 (BMP7), human (human), P18075; assay: SPR; Biacore 2000; receptor ectodomains as analyte over biotinylated ligands on streptavidin-coated CM5 chips; HBS500, 25°C, 10 μl/min; apparent affinities, 1:1 interaction; details: remark: other sources report otherwise
T2 chain: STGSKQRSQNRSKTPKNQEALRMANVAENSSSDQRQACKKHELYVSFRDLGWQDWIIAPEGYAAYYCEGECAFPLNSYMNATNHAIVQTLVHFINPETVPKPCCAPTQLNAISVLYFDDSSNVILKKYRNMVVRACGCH

activin A, human (human) = activin A, human (human) (UniProt P08476); assay: as above
[3] = biological target: preformed complex of BMP2 with immobilized BMPR-IA ectodomain (human) (UniProt P12643); assay: SPR; ternary complexes by coinjection: 100 nM ligand perfused 2 min over the immobilized type I receptor ectodomain, then 100 nM ligand plus 0 to 64 μM soluble type II receptor ectodomain; HBS500, 25°C; equilibrium dose response
[4] = biological target: preformed complex of BMP7 with immobilized BMPR-IB ectodomain (human | mouse) (UniProt P18075); assay: as above
[5] = biological target: preformed complex of GDF5 with an immobilized type I receptor ectodomain (BMPR-IA or BMPR-IB) (UniProt P43026); assay: as above

KD (eq) [1]: > 0.5 µM
Kd [1]: > 0.5 µM
B1: bone morphogenetic protein 7 (BMP7), human, P18075 293-431 (ligand)
chain: STGSKQRSQNRSKTPKNQEALRMANVAENSSSDQRQACKKHELYVSFRDLGWQDWIIAPEGYAAYYCEGECAFPLNSYMNATNHAIVQTLVHFINPETVPKPCCAPTQLNAISVLYFDDSSNVILKKYRNMVVRACGCH
modifications: here or on the partner: biotin (sulfo-NHS-LC-biotin) where immobilised; N-biotinylated (sulfo-NHS-LC-biotin) where immobilised

Kd [2]: 58 µM
B2: activin receptor type I (ActR-I) ectodomain, human, Q04771 21-123 (receptor)
chain: MEDEKPKVNPKLYMCVCEGLSCGNEDHCEGQQCFSSLSINDGFHVYQKGCFQVYEQGKMTCKTPPSPGQAVECCQGDWCNRNITAQLPTKGKSFPGTQNFHLE
modifications: here or on the partner: N-biotinylated (sulfo-NHS-LC-biotin) where immobilised; biotin (sulfo-NHS-LC-biotin) where immobilised

Kd (activin A, human (human)): 0.89 µM
koff (activin A, human (human)): 0.076 s⁻¹
kon (activin A, human (human)): 100000 M⁻¹ s⁻¹
Kd [3]: 22 µM
Kd [4]: 16 µM
Kd [5]: 32 µM
B3: BMP receptor II (BMPR-II) ectodomain, human (receptor)
chain: RLCAFKDPYQQDLGIGESRISHENGTILCSKGSTCYGLWEKSKGDINLVKQGCWSHIGDPQECHYEECVVTTTPPSIQNGTYRFCCCSTDLCNVNFTENFPPPDTTPLSPPHSFNRDET
modifications: N-biotinylated (sulfo-NHS-LC-biotin) where immobilised
